# The supplement of paper PMC7125110
# ± gives the standard error. This sample holds only a part of the variants without activity.
# B1: glmS ribozyme (parent)
# chain: AUAAAAGCGCCAGAACUACAGAAAUGUAGUUGACGAGGAGGAGGUUUAUCGAAUUUUCGGCGGAUGCCUCCAAA
# Variants of: B1
# Test: self-cleavage kobs at 10000 uM GlcN6P; higher = faster cleavage; RNA array
# Conditions: with glucosamine-6-phosphate
# In short: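 Glucosamine-6-phosphate (40 μM to 10 mM) in HEPES/KCl/Mg(OAc)2 buffer was flowed over sequenced MiSeq chips, and tiles were imaged over ~14 h. Barcoded ribozyme variants there had been transcribed in situ by E. coli RNA polymerase and were tracked through a hybridised Cy3 probe at 37 °C. One- or two-exponential decay fits to per-tile medians, normalised to baseline and to non-cleaving reference variants, gave kobs. kcat and KM came from weighted Michaelis–Menten fits across concentrations.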
row,Variant,self-cleavage kobs at 10000 uM GlcN6P
1,AUAAAAGCGCCAGAACUACAGAAAUGUAGCUGACGAGGAGGAGUUUUAUCGAAUUUUGGGCGGAUGCCUCCAAA [U30C G44U C58G],< 1e-05 s⁻¹
2,AUAAAAGCGCCAGAAAUACAGAAAUGUAGUGGACGAGGAGGAGGUUUAUCGAAUUUUCGGCGGAUGUCUCCAAA [C16A U31G C67U],6.54e-05 ± 1.4e-05 s⁻¹
3,AUAAAAGCGCCAGAAUUACAGAAAUGUAGUUAACGAGGAGGAGGUUUAUCGAAUUUCCGGCGGAUGCCUCCAAA [C16U G32A U57C],2.6e-05 ± 1.3e-05 s⁻¹
4,AUAAAAGCGCCAGAACUACAGAAAUGUAUUUGACGAGGAGGAGGUUGAUCGAAUUUUCGGCGGAUGGCUCCAAA [G29U U47G C67G],0.000103 ± 1.9e-05 s⁻¹
5,AUAAAAGCGCCAGAUCUACAGAAAUGUAGUUGACGAGGAGGAGGUUUAUCGAAUUUUUUGCGGAUGCCUCCAAA [A15U C58U G59U],< 1e-05 s⁻¹
6,AUAAAAGCGCCAGAACUACAGAAAUGUAUUUGACCAGGAGGACGUUUAUCGAAUUUUCAGCGGAUGCCUCCAAA [G29U G35C G43C G59A],< 1e-05 s⁻¹
7,AUAAAAGCGCCAGAAUUACAGAAAUGUAGUUGACGAGGAGUAGGUUAAUCGAAUUUUCGGCGGAUGCCUCCAAA [C16U G41U U47A],0.000489 ± 7.1e-05 s⁻¹
8,AUAAAAGCGCCAGAACUACAGAAAUGUAGCUGACGCGGAGGAGGUUUAACGAAUUUUCGGCGGAUGCCUCCAAA [U30C A36C U49A],< 1e-05 s⁻¹
9,AUAAAAGCGCCAGAACUACAGAAAUGUAGAUGACGAGGAGGAGGUUUAUCGAAUUUUCGGCGGAUGGCUCGAAA [U30A C67G C71G],< 1e-05 s⁻¹
10,AUAAAAGCGCCAGAACUACAGAAAUGUAUUUGACGAGGAGGAGGUUUAUCGAAUUUUCGAAGGAUGCCUCCAAA [G29U G60A C61A],< 1e-05 s⁻¹
11,AUAAAAGCGCCAGAACUAUAGAAAUGUAGUUGACGAGGAGGAGGUUUAUCGAAUUUUCGGCGGAUGCUUCCAAA [C19U C68U],0.00423 ± 0.0011 s⁻¹
12,AUAAAAGCGCCAGAACUACAGAAAUGUAGAUGUCGACGAGGAGGUUUAUCGAAUUUUCGGCGGAUGCCACCAAA [U30A A33U G37C U69A],< 1e-05 s⁻¹
13,AUAAAAGCGCCAGAACUACAGAAAUGUAUUUGACGAGGAGGAGGUUUAUCGAAUUCUCGGCGGAUGCCUCCAAA [G29U U56C],0.000483 ± 0.00016 s⁻¹
14,AUAAAAGCGCCAGAGUUACAGAAAUGUAGUUGACGAGGAGGAGGUUCAUCGAAUUUUCGGCGGAAGCCCCCAAA [A15G C16U U47C U65A U69C],6.04e-05 ± 2.9e-05 s⁻¹
15,AUAAAAGCGCCAGAAGUACAGAAAUGUAGUUCACGAGGAGGAUGUUGAUCGAAUUAUCGGCGGAUGCCUCCAAA [C16G G32C G43U U47G U56A],< 1e-05 s⁻¹
16,AUAAAAGCGCCAGAACUACAGAAAUGUAGCGGGCGAGGAGGAGGUUUAUCGAAUUUUCGGCGGAUGCCGCCAAA [U30C U31G A33G U69G],< 1e-05 s⁻¹
17,AUAAAAGCGCCAGAACUACAGAAAUGUAUUUGACGAGGAGGAGGUGUAUCGAAUUUUCGGCGGAUGCUUCCAAA [G29U U46G C68U],0.000229 ± 4.1e-05 s⁻¹
18,AUAAAAGCGCCAGAACUACAUAAAUGUAGUUGACGAGGAGGAGGUUUAUCGGAUUUUCGGCGGAUGCCUCCAAA [G21U A52G],0.00145 ± 0.0003 s⁻¹
19,AUAAAAGCGCCAGAAAUACAGAAAUGUAGUUGACGAGGAGGAAAUUUUUCGAAUUUUCGGCGGAUGCCUCCAAA [C16A G43A G44A A48U],< 1e-05 s⁻¹

row,Variant,self-cleavage kobs at 10000 uM GlcN6P
1,AUAAAAGCGCCAGAACUAAAGAAAUGUAGUUGACGAGGAGGACGUUGAUCGAAUUUUCGGCGGAUGCCUCCAAA [C19A G43C U47G],< 1e-05 s⁻¹
2,AUAAAAGCGCCAGAAGUACAGAAAUGUAGUUGACGAGGAGGAGGCUUAUCGAAUUUUCGGCGGAUGGCUCCAAA [C16G U45C C67G],0.000811 ± 0.00018 s⁻¹
3,AUAAAAGCGCCAGAACUACAGAAAUGUACUUUACGAGGAGGAGGUUUAUCGAAUUUUCGGCGGAUGCCUACAAA [G29C G32U C70A],0.000104 ± 2.2e-05 s⁻¹
4,AUAAAAGCGCCAGAACUACAGAAAUGUAGCUGACGAGAAGGAGGUUUAUCGAAUUUUCGGCGCAUGCCCCCAAA [U30C G38A G63C U69C],< 1e-05 s⁻¹
5,AUAAAAGCGCCAGAAUUACAGAAAUGUAGUUGACGAAGAGGAGGUUUAUCGAAUUUUCGGCGGAGGCCUCCAAA [C16U G37A U65G],0.000183 ± 3.8e-05 s⁻¹
6,AUAAAAGCGCCAGAAGUACAGAAAUGUAGUUGACGCGGAGGAGGUUUAUCGAAUUUUUGGCGGAUGCCUGCAAA [C16G A36C C58U C70G],4.92e-05 ± 2.2e-05 s⁻¹
7,AUAAAAGCGCCAGAUCUACAGAAAUGUAGUUGACGAGGAGGAAGUUUAUCGAAUUUUCGGCGGUUGCGUCCAAA [A15U G43A A64U C68G],< 1e-05 s⁻¹
8,AUAAAAGCGCCAGAAAUACAGAAAUGUAGUAGACGAGGAGGAGGUUUAUCGAAUUUUCGGCGGAUGCCUCGAAA [C16A U31A C71G],4.01e-05 ± 1.1e-05 s⁻¹
9,AUAAAAGCGCCAGAAUUACAGAAAUGUAGUUGACGAGGAGGAGGUUUAUCGAUUUUUCGGCGGAGGCCUCCAAA [C16U A53U U65G],0.00246 ± 0.00058 s⁻¹
10,AUAAAAGCGCCAGAAAUACAGAAAUGUAGUCGACGAGGAGCAGGUUUAUCGAAUUUUCGGCGGAUGCAUCCAAA [C16A U31C G41C C68A],< 1e-05 s⁻¹
11,AUAAAAGCGCCAGAACUACAGAAAUGUAUUUGACGAGGAGGAGGUUUGUCAAAUUUUCGGCGGAUGCCUCCAAA [G29U A48G G51A],< 1e-05 s⁻¹
12,AUAAAAGCGCCAGAACUACAGAAAUGUAGAUGACGAGCAGGAGGUUUAUCGAAUUUUCGGCGGAUGCCUCCAAA [U30A G38C],< 1e-05 s⁻¹
13,AUAAAAGCGCCAGAAAUACAGAAAUGUAGGUGAUGAGGAGGAGGUUUAUCGAAUUUUCGGCGGAUGCCUCCAAA [C16A U30G C34U],< 1e-05 s⁻¹
14,AUAAAAGCGCCAGAACUACAGAAAUGUAUUUGACGAGGAGGAGGUUUAUCGAAAUUUCGGCGGAUGCCUCUAAA [G29U U54A C71U],0.00223 ± 0.00064 s⁻¹
15,AUAAAAGCGCCAGAAAUACAGAAAUGUAUUUGACGAGGAGGAGGGUUAUCGAAUUUUCGGCGGAUGCCUCCAAA [C16A G29U U45G],0.0036 ± 0.00061 s⁻¹
16,AUAAAAGCGCCAGAAGUACAGAAAUGUAGUUGACGAGGAGGAGGUUUAUAGAAUUCUCGGCGGAUGCCGCCAAA [C16G C50A U56C U69G],< 1e-05 s⁻¹
17,AUAAAAGCGCCAGAACUACAUAAAUGUAGUUGACGAGGAGCAGGUUUAUCGAAUUUUCGGCGGAUGCCUUCAAA [G21U G41C C70U],0.000298 ± 8.1e-05 s⁻¹
18,AUAAAAGCGCCAGAGCUACAGAAAUGUAGUUGACGAGGAGGAGGUUUAUCGAUUUUUCGGCGGAUGCCGCCAAA [A15G A53U U69G],5.88e-05 ± 1.8e-05 s⁻¹
